Consider one molecule from patent US7282356B2, “D-aminoacylase mutants” (Daicel Chemical Industries, Ltd., priority 2002, dated 2007).

A short description of data set [1]: Activity of the cloned, purified enzyme to N-acetyl-L-tryptophan. It is filed as biochemical. The following applies: cloned enzyme purified from E. coli. From the text:
The present inventors focused on the fact that the D-aminoacylase derived from Alcaligenes denitrificans subsp. xylosoxydans MI-4 strain has an exceedingly high specific activity (404 U/mg) to N-acetyl-D-methionine. According to references, the D-aminoacylase had only 20 U/mg or lower activity to N-acetyl-D-tryptophan. The present inventors cloned the gene encoding the enzyme into E. coli, purified the cloned enzyme, and measured its specific activity. […] Thus, this enzyme can be useful to produce D-tryptophan from N-acetyl-DL-tryptophan.

The nature of data set [2]: Production of D-tryptophan from high concentrations of N-acetyl-DL-tryptophan using culture medium of recombinant E. coli. It is filed as cell-based, E. coli HB101. The procedure:
Cells of E. coli HB101 strain were transformed with the plasmid pSL-AD10 expressing the mutant D-aminoacylase 3AD-0089 (containing the amino acid substitution of A154V/M347A/R374F) obtained in Example 18. The transformant was inoculated to a liquid LB medium, and cultured at 30° C. overnight. Then, the E. coli was inoculated to a culture medium (2x YT) and incubated at 30° C. for 18 hours. N-acetyl-D-tryptophan was hydrolyzed using the culture medium solution of the E. coli.
400 mL of a reaction solution containing the culture medium solution of the E. coli and 15% N-acetyl-DL-tryptophan was incubated at 30° C. for 24 hours while being stirred. E. coli HB101 strain containing the wild type […] was used as a control. While with the wild type the yield was about 4%, with the recombinant E. coli containing pSL-AD10 the yield was 90% or higher (FIG. 1).
The hydrolysis was carried out in the presence of 20% N-acetyl-DL-tryptophan by the same method as described in Example 26. The yield was 90% or higher with the recombinant E. coli having the plasmid pSL-AD10 that contains the DNA encoding the mutant D-aminoacylase 3AD-0089 (containing the amino acid substitution of A154V/M347A/R374F). The optical purity of tryptophan produced was analyzed by the procedure described below. […] The elution was detected with the optical density at 280 nm. […]

Data set [3] in a line: D-aminoacylase activity assay (20 mM N-acetyl-D-tryptophan, TNBS method). It is filed as biochemical. How it is done: The enzyme reaction can be achieved by incubating 1.0 ml of a reaction solution containing 20 mM N-acetyl-D-tryptophan (Sigma), 50 mM Tris-hydrochloride buffer (pH 7.5), and an enzyme solution at 30° C. for 10 minutes. Then, the reaction is stopped by adding 0.5 ml of a stop solution containing TCA (comprising 0.11 M trichloroacetic acid, 0.22 M sodium acetate, and 0.33 M acetic acid). The amount of D-tryptophan produced can be determined by TNBS method (Biosci. Biotech. Biochem., 58, 24 (1994)).
For example, 0.25 ml of 100 mM Na2B4O7 is added to 0.25 ml of the stop solution, 10 μl of 110 mM TNBS (trinitrobenzenesulfonic acid) solution is added to the mixed solution, and immediately thereafter, the resulting mixture is stirred. After the mixture is allowed to stand for five minutes, 1 ml of 100 mM NaHPO4 containing 1.5 mM Na2SO3 is added to the mixture to stop the color reaction. Then, the absorbance of the solution is determined at 420 nm. One unit of the enzyme activity is defined as the amount of enzyme that catalyzes the production of 1 μmol of D-tryptophan at 30° C. for one minute.

Data set [4] can be described thus: Second generation mutants: activity of producing D-tryptophan (TNBS Abs. 420 / OD600). It is filed as cell-based, E. coli JM109. The following applies: 5% N-acetyl-DL-tryptophan and 2% N-acetyl-L-tryptophan. The procedure:
Three types of the E. coli transformant libraries obtained in Example 11 were inoculated on an LB agar plate. Each colony grown on the plate was inoculated with a toothpick to a well of a microtiter plate which contained 150 μl of LB culture medium containing 50 μg/ml ampicillin and 0.02 mM IPTG, and then the microtiter plate was covered with Breathable Sealing Membrane (Nalgene). The microtiter plate was incubated at 37° C. for 18 hours while being shaken. 10 μl of the culture medium solution was added to the reaction solution containing 300 mM Tris-hydrochloride buffer (pH 8.0), 0.1% cetylpyridinium bromide, 5% N-acetyl-DL-tryptophan, 1% N-acetyl-L-tryptophan, and distilled water in the wells of a microtiter plate. The plate was incubated at 25° C. for 1 hour while being shaken. Then, D-tryptophan produced from N-acetyl-D-tryptophan was quantified by colorimetry according to the TNBS method. […]
(§1) The amino acid substitution in each mutant, and the effect of the amino acid substitution, which was estimated as an activity of producing D-tryptophan in the presence of 5% N-acetyl-DL-tryptophan and 2% N-acetyl-L-tryptophan, are shown in Table 2. The “activity”, as used herein, refers to “a colorimetric value of the reaction solution determined at the end of reaction by the TNBS method (Abs. 420)/the degree of bacterial growth (OD600)”.

Data set [5] is described as follows: Third generation mutants: activity of producing D-tryptophan (TNBS method). The following applies: 2% N-acetyl-DL-tryptophan, 3.5% N-acetyl-L-tryptophan, 25° C., 30 minutes. It is filed as cell-based, E. coli JM109.
Description: as §1
Cells of the E. coli transformant obtained in Example 9 were inoculated on an LB agar plate. Each colony grown on the plate was inoculated with a toothpick to a well of a microtiter plate which contained 150 μl of LB culture medium containing 50 μg/ml ampicillin and 0.02 mM IPTG, and then the microtiter plate was covered with Breathable Sealing Membrane (Nalgene). The microtiter plate was incubated at 37° C. for 18 hours while being shaken. 10 μl of the culture medium solution was added to the reaction solution containing 300 mM Tris-hydrochloride buffer (pH 8.0), 0.1% cetylpyridinium bromide, 2% N-acetyl-DL-tryptophan, 3.5% N-acetyl-L-tryptophan, and distilled water in the wells of a microtiter plate. The plate was incubated at 25° C. for 30 minutes while being shaken. Then, D-tryptophan produced from N-acetyl-D-tryptophan was quantified by colorimetry according to the TNBS method using D-tryptophan as standard. […]

B1: wild-type: D-aminoacylase derived from Alcaligenes denitrificans subsp. xylosoxydans MI-4, SEQ ID NO: 1 (protein)
chain: MSQSDSQPFDLLLAGGTLIDGSNTPGRRADLGVRGDRIAAIGDLSDAAAHTRVDVSGLVVAPGFIDSHTHDDNYLLRRRDMTPKISQGVTTVVTGNCGISLAPLAHANPPAPLDLLDEGGSYRFERFADYLDALRATPAAVNAACMVGHSTLRAAVMPDLQRAATDEEIAAMRDLAEEAMASGAIGISTGAFYPPAARATTEEIIEVCRPLSAHGGIYATHMRDEGEHIVAALEETFRIGRELDVPVVISHHKVMGQPNFGRSRETLPLIEAAMARQDVSLDAYPYVAGSTMLKQDRVLLAGRTIITWCKPFPELSGRDLDEVAAERGKSKYDVVPELQPAGAIYFMMDEPDVQRILAFGPTMIGSDGLPHDERPHPRLWGTFPRVLGHYARDLGLFPLETAVWKMTGLTAARFGLAGRGQLQAGYFADLVVFDPATVADTATFEHPTERAAGIHSVYVNGAPVWQEQAFTGQHAGRVLARTAA
modifications: Alcaligenes denitrificans subsp. xylosoxydans MI-4
Turning to B1, in data set [1], the “activity to N-acetyl-L-tryptophan” value was “inactive”. In data set [2] (15% N-acetyl-DL-tryptophan, 30° C., 24 hours, culture medium solution), the yield result was “about 4%”. Besides, the D-tryptophan produced result in data set [2] (from 150 g/l N-acetyl-DL-tryptophan (75 g/l N-acetyl-D-tryptophan), FIG. 1) is reported as “about 2.5 g/l”. Moreover, in data set [3] (cell extract of E. coli JM109 transformant), the “D-aminoacylase activity of cell extract” value was 34 U/mg. Also, the “specific activity of the purified enzyme” value in data set [3] (purified enzyme, N-acetyl-D-tryptophan) came out at 528 U/mg. Also, the entries for the “Activity of producing D-tryptophan” value in data set [4] and in data set [5] were 2.58 and 2.65, respectively.
